Data taken from patent US20110171681.

Assays:
[1] = biological target: cell surface beta1,4-galactosyltransferase I (GalT), mouse, endogenous (UniProt P15535)
[2] = biological target: cyclin-dependent kinase inhibitor p57(kip2) (UniProt P49919)

His tagged GTAP
in vitro ubiquitination of immunoprecipitated GalT [1]: Surprisingly GTAP had no effect on immunoprecipitated GalT in an in vitro ubiquitin system
in vitro ubiquitination of p57 with biotinylated ubiquitin [2]: GTAP increased the ubiquitination of p57 only in the presence of E1
